In paper PMC4686654:

Columns and labels:
EGFP-RhoA [1] = biological target: EGFP-RhoA (UniProt P61586); experiment: fluorescence polarisation; 100 nM EGFP-RhoA.GDP titrated with Dbs; 20 mM Tris pH 7.4, 150 mM KCl, 1 mM TCEP, 1 mM EDTA (nucleotide-free RhoA); 25 °C
EGFP-RhoA [2] = biological target: EGFP-RhoA (UniProt P61586); experiment: fluorescence polarisation; 100 nM EGFP-RhoA.GDP titrated with Dbs; 20 mM Tris pH 7.4, 150 mM KCl, 1 mM TCEP, 2 mM MgCl2 (nucleotide-loaded RhoA); 25 °C

Sequence of EGFP-RhoA (P61586 whole entry): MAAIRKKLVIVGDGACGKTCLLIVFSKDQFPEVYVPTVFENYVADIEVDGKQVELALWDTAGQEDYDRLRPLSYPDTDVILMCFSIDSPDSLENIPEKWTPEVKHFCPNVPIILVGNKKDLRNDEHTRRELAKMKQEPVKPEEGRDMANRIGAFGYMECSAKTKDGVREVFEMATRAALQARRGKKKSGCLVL

Kd (EGFP-RhoA [1]): 0.354 µM
Kd (EGFP-RhoA [2]): 21.2 µM
B1: guanine exchange factor Dbs 622-965 (domain or fragment)
chain: TGEEEESLAILRRHVMNELLDTERAYVEELLCVLEGYAAEMDNPLMAHLISTGLQNKKNILFGNMEEIYHFHNRNIPAGLESCIDCPELVGRCFLERMEEFQIYEKYCQNKPRSESLWRQCSDCPFFQECQKKLDHKLSLDSYLLKPVQRITKYQLLLKEMLKYSKHCEGAEDLQEALSSILGILKAVNDSMHLIAITGYDGNLGDLGKLLMQGSFSVWTDHKKGHTKVKELARFKPMQRHLFLHEKAVLFCKKREENGEGYEKAPSYSYKQSLNMTAVGITENVKGDTKKFEIWYNAREEVYIIQAPTPEIKAAWVNEIRKVLTSQLQACREASQHRALEQSH
